This is an account of results in patent US12319742 (SHATTUCK LABS, dated 2025).

In this test the target is T1, biotinylated recombinant human TNFRSF25-His tagged (Acro #TN5-H52H3) (human, UniProt Q93038 25-199, biotinylated).
T1 construct: treated as the same protein; also called recombinant biotin-conjugated human TNFRSF25 protein; DR3
T1 sequence (looked up): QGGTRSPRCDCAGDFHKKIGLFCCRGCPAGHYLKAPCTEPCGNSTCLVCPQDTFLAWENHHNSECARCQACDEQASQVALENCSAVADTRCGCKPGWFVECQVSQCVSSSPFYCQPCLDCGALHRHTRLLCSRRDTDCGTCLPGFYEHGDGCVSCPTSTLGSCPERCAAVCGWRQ
In words: BLI/Octet; biotinylated TNFRSF25 on streptavidin sensor, antibody in solution; 1:1 Langmuir model. A general note: BLI is a label-free optical method that tracks binding on a fibre tip over time.

B1: 033_NH24 biparatopic antibody (bispecific antibody, human IgG1, kappa, L234A L235A)
heavy 1: not shown
light 1: AIQLTQSPSSLSASVGDRVTITCRASPGISSALAWYQQKPGKAPKLLMYDESSQESGVPSRFSGSGSGTDFTLTISSLQPEDFATYYCQQFNDYPLTFGGGTKVEIKRTVAAPSVFIFPPSDEQLKSGTASVVCLLNNFYPREAKVQWKVDNALQSGNSQESVTEQDSKDSTYSLSSTLTLSKADYEKHKVYACEVTHQGLSSPVTKSFNRGEC
heavy 2: EVQLVESGGGSVQPGGSLRLSCAASGFTFSSYGMSWIRQAPGKGLEWISYISSSGGHTYYADSVKGRFTISRDNAKNSLYLQMNSLRAEDTAVYYCARGSGSFDYWGQGTLVTVSSASTKGPSVFPLAPSSKSTSGGTAALGCLVKDYFPEPVTVSWNSGALTSGVHTFPAVLQSSGLYSLSSVVTVPSSSLGTQTYICNVNHKPSNTKVDKKVEPKSCDKTHTCPPCPAPEAAGGPSVFLFPPKPKDTLMISRTPEVTCVVVDVSHEDPEVKFNWYVDGVEVHNAKTKPREEQYNSTYRVVSVLTVLHQDWLNGKEYKCKVSNKALPAPIEKTISKAKGQPREPQVCTLPPSREEMTKNQVSLSCAVKGFYPSDIAVEWESNGQPENNYKTTPPVLDSDGSFFLVSKLTVDKSRWQQGNVFSCSVMHEALHNHYTQKSLSLSPGK
light 2: not shown
Turning to B1, the Kd is 140 pM.

For orientation: Kd means a measure of binding affinity in units of concentration.
